The text below walks through data of the supplement of paper PMC11246515.

The nature of this data set: total protein half-life in vivo (active degradation + dilution); higher = more stable protein.
[1] abbreviates: E. coli NCM3722 delta-clpP delta-lon delta-hslV, growth: N-lim chemostat, doubling time 6 h.
[2] abbreviates: E. coli NCM3722 delta-clpP, growth: N-lim chemostat, doubling time 6 h.
The mark [3] stands for this setting: E. coli NCM3722 delta-hslV, growth: N-lim chemostat, doubling time 6 h.
Setting [4] is: E. coli NCM3722 delta-lon, growth: N-lim chemostat, doubling time 6 h.
[5] abbreviates: E. coli NCM3722 delta-smpB, growth: N-lim chemostat, doubling time 6 h.
[6] abbreviates: wild type E. coli NCM3722, growth: C-lim chemostat, doubling time 3 h.
Setting [7] is: wild type E. coli NCM3722, growth: C-lim chemostat, doubling time 6 h.
Setting [8] is: wild type E. coli NCM3722, growth: C-lim chemostat, doubling time 12 h.
The mark [9] stands for this setting: wild type E. coli NCM3722, growth: N-lim chemostat, doubling time 6 h.
Where [10] appears, read: wild type E. coli NCM3722, growth: N-lim chemostat, doubling time 12 h.
The mark [11] stands for this setting: wild type E. coli NCM3722, growth: P-lim chemostat, doubling time 6 h.
[12] abbreviates: wild type E. coli NCM3722, growth: P-lim chemostat, doubling time 12 h.

± gives the standard deviation of the averaged measurements.

Regarding “MYLRPDEVARVLEKVGFTVDVVTQKAYGYRRGENYVYVNREARMGRTALVIHPTLKERSSTLAEPASDIKTCDHYQQFPLYLAGERHEHYGIPHGFSSRVALERYLNGLFGEAS [P0AD53]”, the “total protein half-life in vivo” value under setting [1] is 4.77 ± 0.34 h; the “total protein half-life in vivo” value under setting [2] amounted to 1.5 h; the “total protein half-life in vivo” value under setting [3] is 0.818 h; the “total protein half-life in vivo” value under setting [4] came out at 2.99 ± 0.41 h; the “total protein half-life in vivo” value under setting [5] came to 0.698 ± 0.21 h; the “total protein half-life in vivo” value under setting [6] was found to be 1.18 ± 0.14 h. Also, the “total protein half-life in vivo” value turned out to be 1.81 ± 0.54 h under setting [7]; 1.42 h under setting [8]; 0.609 ± 0.47 h under setting [9]; 1.14 h under setting [10]; 1.03 ± 0.22 h under setting [11]; 2.61 h under setting [12].
For “MTIALELQQLKKTYPGGVQALRGIDLQVEAGDFYALLGPNGAGKSTTIGIISSLVNKTSGRVSVFGYDLEKDVVNAKRQLGLVPQEFNFNPFETVQQIVVNQAGYYGVERKEAYIRSEKYLKQLDLWGKRNERARMLSGGMKRRLMIARALMHEPKLLILDEPTAGVDIELRRSMWGFLKDLNDKGTTIILTTHYLEEAEMLCRNIGIIQHGELVENTSMKALLAKLKSETFILDLAPKSPLPKLDGYQYRLVDTATLEVEVLREQGINSVFTQLSEQGIQVLSMRNKANRLEELFVSLVNEKQGDRA”, the “total protein half-life in vivo” value is 6.97 ± 0.91 h under setting [1]; 6.29 ± 0.4 h under setting [2]; 6.1 ± 1 h under setting [3]; 6.83 ± 0.17 h under setting [4]; 6.4 ± 0.21 h under setting [5]; 3.09 ± 0.16 h under setting [6]. Further, the “total protein half-life in vivo” value stood at 6.21 ± 0.28 h under setting [7]; 11.6 ± 1.9 h under setting [8]; 6.14 ± 0.38 h under setting [9]; 12.1 ± 0.42 h under setting [10]; 6.24 ± 0.29 h under setting [11]; 12.7 ± 0.8 h under setting [12].
With “MQAYFDQLDRVRYEGSKSSNPLAFRHYNPDELVLGKRMEEHLRFAACYWHTFCWNGADMFGVGAFNRPWQQPGEALALAKRKADVAFEFFHKLHVPFYCFHDVDVSPEGASLKEYINNFAQMVDVLAGKQEESGVKLLWGTANCFTNPRYGAGAATNPDPEVFSWAATQVVTAMEATHKLGGENYVLWGGREGYETLLNTDLRQEREQLGRFMQMVVEHKHKIGFQGTLLIEPKPQEPTKHQYDYDAATVYGFLKQFGLEKEIKLNIEANHATLAGHSFHHEIATAIALGLFGSVDANRGDAQLGWDTDQFPNSVEENALVMYEILKAGGFTTGGLNFDAKVRRQSTDKYDLFYGHIGAMDTMALALKIAARMIEDGELDKRIAQRYSGWNSELGQQILKGQMSLADLAKYAQEHHLSPVHQSGRQEQLENLVNHYLFDK”, the “total protein half-life in vivo” value under setting [1] turned out to be 4.53 ± 0.48 h; the “total protein half-life in vivo” value under setting [3] is 2.75 h; the “total protein half-life in vivo” value under setting [6] was found to be 2.93 ± 0.26 h; the “total protein half-life in vivo” value under setting [7] turned out to be 4.84 ± 0.15 h; the “total protein half-life in vivo” value under setting [8] was found to be 8.63 ± 0.81 h; the “total protein half-life in vivo” value under setting [9] stood at 3.53 h. The “total protein half-life in vivo” value runs as follows: under setting [11], 5.81 ± 0.47 h; under setting [12], 11.6 ± 0.51 h.
Regarding “MRFMQRSKDSLAKWLSAILPVVIVGLVGLFAVTVIRDYGRASEADRQALLEKGNVLIRALESGSRVGMGMRMHHVQQQALLEEMAGQPGVLWFAVTDAQGIIILHSDPDKVGRALYSPDEMQKLKPEENSRWRLLGKTETTPALEVYRLFQPMSAPWRHGMHNMPRCNGKAVPQVDAQQAIFIAVDASDLVATQSGEKRNTLIILFALATVLLASVLSFFWYRRYLRSRQLLQDEMKRKEKLVALGHLAAGVAHEIRNPLSSIKGLAKYFAERAPAGGEAHQLAQVMAKEADRLNRVVSELLELVKPTHLALQAVDLNTLINHSLQLVSQDANSREIQLRFTANDTLPEIQADPDRLTQVLLNLYLNAIQAIGQHGVISVTASESGAGVKISVTDSGKGIAADQLDAIFTPYFTTKAEGTGLGLAVVHNIVEQHGGTIQVASQEGKGSTFTLWLPVNITRKDPQG”, the “total protein half-life in vivo” value by setting is: under setting [1], 5.89 h; under setting [3], 6.11 ± 0.45 h; under setting [5], 5.27 ± 0.29 h; under setting [6], 3.57 ± 0.24 h; under setting [7], 4.91 h; under setting [8], 13.4 ± 2.7 h. The “total protein half-life in vivo” value is, setting by setting: under setting [9], 5.12 h; under setting [10], 14.1 h; under setting [12], 11.4 ± 0.38 h.
On to “MSKPPLFFIVIIGLIVVAASFRFMQQRREKADNDMAPLQQKLVVVSNKREKPINDRRSRQQEVTPAGTSIRYEASFKPQSGGMEQTFRLDAQQYHALTVGDKGTLSYKGTRFVSFVGEQ”, for which the “total protein half-life in vivo” value under setting [2] was found to be 6.5 h; the “total protein half-life in vivo” value under setting [3] stood at 6.4 ± 0.69 h; the “total protein half-life in vivo” value under setting [4] was 5.45 ± 0.15 h; the “total protein half-life in vivo” value under setting [5] was determined as 5.65 ± 0.38 h; the “total protein half-life in vivo” value under setting [6] turned out to be 3.61 ± 0.1 h; the “total protein half-life in vivo” value under setting [7] turned out to be 6.11 ± 0.42 h. The “total protein half-life in vivo” value reads like this: under setting [8], 11.6 ± 0.63 h; under setting [9], 5.71 ± 0.065 h; under setting [10], 11.3 ± 0.54 h; under setting [11], 5.66 ± 0.5 h; under setting [12], 11.5 ± 0.14 h.
Regarding “MLSKFKRNKHQQHLAQLPKISQSVDDVDFFYAPADFRETLLEKIASAKQRICIVALYLEQDDGGKGILNALYEAKRQRPELDVRVLVDWHRAQRGRIGAAASNTNADWYCRMAQENPGVDVPVYGVPINTREALGVLHFKGFIIDDSVLYSGASLNDVYLHQHDKYRYDRYHLIRNRKMSDIMFEWVTQNIMNGRGVNRLDDVNRPKSPEIKNDIRLFRQELRDAAYHFQGDADNDQLSVTPLVGLGKSSLLNKTIFHLMPCAEQKLTICTPYFNLPAILVRNIIQLLREGKKVEIIVGDKTANDFYIPEDEPFKIIGALPYLYEINLRRFLSRLQYYVNTDQLVVRLWKDDDNTYHLKGMWVDDKWMLITGNNLNPRAWRLDLENAILIHDPQLELAPQREKELELIREHTTIVKHYRDLQSIADYPVKVRKLIRRLRRIRIDRLISRIL”, the “total protein half-life in vivo” value under setting [1] turned out to be 5.434 ± 0.046 h; the “total protein half-life in vivo” value under setting [2] came out at 5.74 ± 0.068 h; the “total protein half-life in vivo” value under setting [3] came to 5.18 ± 0.38 h; the “total protein half-life in vivo” value under setting [4] worked out at 5.91 ± 0.5 h; the “total protein half-life in vivo” value under setting [5] was 4.896 ± 0.011 h; the “total protein half-life in vivo” value under setting [6] is 2.97 ± 0.26 h. Further, the “total protein half-life in vivo” value is 5.64 ± 0.11 h under setting [7]; 9.36 ± 0.81 h under setting [8]; 5.01 ± 0.21 h under setting [9]; 8.57 ± 0.86 h under setting [10]; 6.41 ± 0.85 h under setting [11]; 12 ± 1.5 h under setting [12].
With “MLDLFADAEPWQEPLAAGAVILRRFAFNAAEQLIRDINDVASQSPFRQMVTPGGYTMSVAMTNCGHLGWTTHRQGYLYSPIDPQTNKPWPAMPQSFHNLCQRAATAAGYPDFQPDACLINRYAPGAKLSLHQDKDEPDLRAPIVSVSLGLPAIFQFGGLKRNDPLKRLLLEHGDVVVWGGESRLFYHGIQPLKAGFHPLTIDCRYNLTFRQAGKKE”, the “total protein half-life in vivo” value under setting [2] was 4.32 h; the “total protein half-life in vivo” value under setting [3] turned out to be 2.76 h; the “total protein half-life in vivo” value under setting [4] amounted to 3.17 h; the “total protein half-life in vivo” value under setting [5] is 3.02 ± 0.09 h; the “total protein half-life in vivo” value under setting [9] came to 2.87 ± 0.47 h; the “total protein half-life in vivo” value under setting [10] stood at 4.66 ± 0.55 h. For the same sequence, the “total protein half-life in vivo” value under setting [11] was 3.76 ± 0.13 h and the “total protein half-life in vivo” value under setting [12] worked out at 5.89 h.
Regarding “MKKLVATAPRVAALVEYEDRAILANEVKIRVRFGAPKHGTEVVDFRAASPFIDEDFNGEWQMFTPRPADAPRGIEFGKFQLGNMVVGDIIECGSDVTDYAVGDSVCGYGPLSETVIINAVNNYKLRKMPQGSSWKNAVCYDPAQFAMSGVRDANVRVGDFVVVVGLGAIGQIAIQLAKRAGASVVIGVDPIAHRCDIARRHGADFCLNPIGTDVGKEIKTLTGKQGADVIIETSGYADALQSALRGLAYGGTISYVAFAKPFAEGFNLGREAHFNNAKIVFSRACSEPNPDYPRWSRKRIEETCWELLMNGYLNCEDLIDPVVTFANSPESYMQYVDQHPEQSIKMGVTF”, the “total protein half-life in vivo” value under setting [1] was found to be 6.29 ± 0.3 h.
Take “MSGFYHKHFLKLLDFTPAELNSLLQLAAKLKADKKSGKEEAKLTGKNIALIFEKDSTRTRCSFEVAAYDQGARVTYLGPSGSQIGHKESIKDTARVLGRMYDGIQYRGYGQEIVETLAEYASVPVWNGLTNEFHPTQLLADLLTMQEHLPGKAFNEMTLVYAGDARNNMGNSMLEAAALTGLDLRLVAPQACWPEAALVTECRALAQQNGGNITLTEDVAKGVEGADFIYTDVWVSMGEAKEKWAERIALLREYQVNSKMMQLTGNPEVKFLHCLPAFHDDQTTLGKKMAEEFGLHGGMEVTDEVFESAASIVFDQAENRMHTIKAVMVATLSK”: the “total protein half-life in vivo” value is, setting by setting: under setting [1], 3.57 ± 0.61 h; under setting [2], 2.14 ± 0.064 h; under setting [3], 2.09 ± 0.27 h; under setting [4], 2.62 ± 0.044 h; under setting [5], 2.52 ± 0.042 h; under setting [6], 2.9 ± 0.032 h. Also, the “total protein half-life in vivo” value by setting is: under setting [7], 4.71 ± 0.28 h; under setting [8], 7.42 ± 1.9 h; under setting [9], 2.52 ± 0.23 h; under setting [10], 3.48 ± 0.63 h; under setting [11], 5.11 ± 0.34 h; under setting [12], 8.84 ± 0.35 h.
